T1: VvABF2-HIS (grape vine, UniProt F6H1D1 1-447)
T1 sequence: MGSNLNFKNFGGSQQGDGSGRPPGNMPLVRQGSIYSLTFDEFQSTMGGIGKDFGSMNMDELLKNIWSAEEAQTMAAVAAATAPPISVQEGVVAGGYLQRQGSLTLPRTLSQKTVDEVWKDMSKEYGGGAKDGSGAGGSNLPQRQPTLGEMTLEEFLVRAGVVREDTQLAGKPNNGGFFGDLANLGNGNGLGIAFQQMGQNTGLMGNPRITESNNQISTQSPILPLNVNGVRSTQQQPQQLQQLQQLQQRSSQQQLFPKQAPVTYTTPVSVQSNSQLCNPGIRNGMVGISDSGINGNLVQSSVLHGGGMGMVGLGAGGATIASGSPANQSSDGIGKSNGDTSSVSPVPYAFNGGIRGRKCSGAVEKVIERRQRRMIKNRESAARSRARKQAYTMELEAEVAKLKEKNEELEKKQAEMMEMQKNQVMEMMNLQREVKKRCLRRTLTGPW

T2: VvABI5-HIS (grape vine, UniProt F6HQA3 1-409)
T2 sequence: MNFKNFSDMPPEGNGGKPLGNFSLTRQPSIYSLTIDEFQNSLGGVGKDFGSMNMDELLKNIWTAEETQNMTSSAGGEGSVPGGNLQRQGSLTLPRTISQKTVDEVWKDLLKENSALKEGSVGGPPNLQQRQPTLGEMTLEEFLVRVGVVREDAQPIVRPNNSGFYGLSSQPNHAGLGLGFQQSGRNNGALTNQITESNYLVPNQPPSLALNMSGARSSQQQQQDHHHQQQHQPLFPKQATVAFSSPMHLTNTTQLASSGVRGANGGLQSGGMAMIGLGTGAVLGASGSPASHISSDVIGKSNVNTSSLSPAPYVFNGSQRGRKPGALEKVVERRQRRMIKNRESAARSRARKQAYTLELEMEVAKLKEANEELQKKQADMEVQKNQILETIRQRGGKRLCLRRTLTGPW


What was measured:
[1] = biological target: T1, VvABF2-HIS; assay: EMSA; EMSA: 2 ul of 5x buffer (50% glycerol, 50 mM MgCl2, 5 mM EDTA, 10 mM DTT, 500 mM KCl, 250 mM HEPES pH 7.4) in 10 ul, i.e. 1x = 10% glycerol, 10 mM MgCl2, 1 mM EDTA, 2 mM DTT, 100 mM KCl, 50 mM HEPES; 1 ul of 0.05 uM biotin probe; 24 C, 20 min; 6% native gel, 0.5x TBE; conditions: protein: recombinant; tags: His (pET32a); label: biotin; blunt
[2] = biological target: T2, VvABI5-HIS; assay: as above; conditions: protein: recombinant; tags: His (pET32a); label: biotin; blunt
[3] = biological target: T1, VvABF2-HIS; assay: competition; 100-fold unlabeled vs W37-P2; EMSA: 2 ul of 5x buffer (50% glycerol, 50 mM MgCl2, 5 mM EDTA, 10 mM DTT, 500 mM KCl, 250 mM HEPES pH 7.4) in 10 ul, i.e. 1x = 10% glycerol, 10 mM MgCl2, 1 mM EDTA, 2 mM DTT, 100 mM KCl, 50 mM HEPES; 1 ul of 0.05 uM biotin probe; 24 C, 20 min; 6% native gel, 0.5x TBE; conditions: protein: recombinant; tags: His (pET32a); blunt
[4] = biological target: T2, VvABI5-HIS; assay: as above; conditions: protein: recombinant; tags: His (pET32a); blunt

| Binder | binding result [1] | binding result [2] | binding result [3] | binding result [4] |
| --- | --- | --- | --- | --- |
| W37-P2 (dsDNA) DNA 1: TCCAAATGCTTTCACGTAATTTCATTTGTT DNA 2: AACAAATGAAATTACGTGAAAGCATTTGGA | binds | binds | – | – |
| W37-mP2 (dsDNA) DNA 1: TCCAAATGCTTTAACATGATTTCATTTGTT DNA 2: AACAAATGAAATCATGTTAAAGCATTTGGA | – | – | no binding | no binding |
| W37-P1 (dsDNA) DNA 1: CTCTCTCCCACGTGCCGACCTCACACGTGTTAGCCTCAT DNA 2: ATGAGGCTAACACGTGTGAGGTCGGCACGTGGGAGAGAG | no binding | no binding | – | – |
